Data as given in paper PMC9947222.

Columns and labels:
[1] = system: anti-NP mAb clone B1-8 (Abcam ab206523) (mouse); assay: FIDA; conditions: binding via NIP hapten; in solution; LNA/2'-OMe as N0; one 5' amino-C6 NIP hapten (carrier strand not stated); BLI: PBS, 0.02% Tween-20, 0.1% BSA, pH 7.4, HJ 0.2-20 nM, temperature not stated; all positive binding is through the NP/NIP hapten, not the nucleic acid
[2] = molecular target: mouse IgG2a (mIgG2a) antibody (BALB/c IgG2a,κ Purified Mouse Anti-Mouse I-A[b], Clone AF6-120.1), conjugated to the S1-handle DNA with P3 docking site (mouse); assay: DNA-PAINT super-resolution microscopy on DNA origami (labeling efficiency); mIgG2a-DNA conjugate (60 nM) hybridised to DNA origami held by neutravidin on a biotin-PEG surface; κLC-Nb-7xR3 added in 0.5x buffer C + 1.5% BSA, >45 min at RT, excess washed off; two rounds of Exchange-PAINT (R3, P3); R3 clusters <19 nm from P3 clusters counted

| Substance | Kd [1] | Fab labeling density [2] | nanobodies bound per BCR (average) [2] |
| --- | --- | --- | --- |
| CCGTCCTGAGCC / CACAGTGGACGG / GGCTCACCGATC / GATCGGACTGTG [HJ-1xNIP] | 0.02 µM | – | – |
| anti-mouse kappa light chain nanobody (κLC-Nb) with Ser87 replaced by Cys87, conjugated to the DNA-PAINT docking strand 7xR3 (VHH) | – | 80% | 1.5 |
